# US20170296650A1 (Novartis, published 2017)
# T1: hCMV UL128 (HEK293T transfectant) (hCMV, UniProt P16837 28-171)
# T1 sequence: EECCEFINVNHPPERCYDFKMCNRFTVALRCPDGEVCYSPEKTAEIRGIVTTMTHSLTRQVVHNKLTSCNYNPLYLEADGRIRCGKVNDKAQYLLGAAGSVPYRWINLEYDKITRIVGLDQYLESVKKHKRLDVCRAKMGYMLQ
# Assays:
# [1] = target: T2, hCMV glycoprotein B (gB; HEK293T transfectant) (hCMV, UniProt P06473 32-906); experiment: cell-based or functional assay
# [2] = target: T2, hCMV glycoprotein B (gB; HEK293T …); experiment: cell-based or functional assay; remark: listed apart in the source
# [3] = target: T2, hCMV glycoprotein B (gB; HEK293T …); experiment: cell competition; competitor 2B11-biotin
# [4] = target: T2, hCMV glycoprotein B (gB; HEK293T …); experiment: cell competition; competitor 5F1-biotin
# [5] = target: T2, hCMV glycoprotein B (gB; HEK293T …); experiment: cell competition; competitor 6B4-biotin
# [6] = target: T2, hCMV glycoprotein B (gB; HEK293T …); experiment: cell competition; competitor 7H3-biotin
# [7] = target: T2, hCMV glycoprotein B (gB; HEK293T …); experiment: cell competition; competitor 4H9-biotin
# [8] = target: T2, hCMV glycoprotein B (gB; HEK293T …); experiment: cell-based or functional assay; remark: listed apart in the source
# [9] = target: T2, hCMV glycoprotein B (gB; HEK293T …); experiment: cell competition; competitor 10C6-biotin
# [10] = target: T3, hCMV gH + gL + UL128 + UL130 + UL131A (5-member complex; HEK293T co-transfectant) (hCMV, UniProt P12824 24-743; P16832 31-278; P16837 1-171; P16772 1-214); experiment: cell competition; competitor 2F4-biotin
# T3 construct: whole, on cells; in the functional rows it stands for the complex on virions or transduced cells of the strain or isolate named in the readout; also called gH/gL/UL128-131A complex; pentameric complex
# [11] = target: T3, hCMV gH + gL + UL128 + UL130 + UL131A …; experiment: cell competition; competitor 4I22-biotin
# [12] = target: T3, hCMV gH + gL + UL128 + UL130 + UL131A …; experiment: cell competition; competitor 6G4-biotin
# [13] = target: T3, hCMV gH + gL + UL128 + UL130 + UL131A …; experiment: cell competition; competitor 4N10-biotin
# [14] = target: T3, hCMV gH + gL + UL128 + UL130 + UL131A …; experiment: cell competition; competitor 1F11-biotin
# [15] = target: T3, hCMV gH + gL + UL128 + UL130 + UL131A …; experiment: cell competition; competitor 10F7-biotin
# [16] = target: T1, hCMV UL128 (HEK293T transfectant); experiment: cell-based or functional assay
# [17] = target: T3, hCMV gH + gL + UL128 + UL130 + UL131A …; experiment: cell competition; competitor 5A2-biotin
# [18] = target: T3, hCMV gH + gL + UL128 + UL130 + UL131A …; experiment: cell competition; competitor 15D8-biotin
# [19] = target: T3, hCMV gH + gL + UL128 + UL130 + UL131A …; experiment: cell competition; competitor 8I21-biotin
# [20] = target: T1, hCMV UL128 (HEK293T transfectant); experiment: cell-based or functional assay; remark: listed apart in the source
# [21] = target: T3, hCMV gH + gL + UL128 + UL130 + UL131A …; experiment: cell competition; competitor 2C12-biotin
# [22] = target: T4, hCMV gH + gL + UL128 + UL130 (HEK293T co-transfectant) (hCMV, UniProt P12824 24-743; P16832 31-278; P16837 28-171; P16772 1-214); experiment: cell-based or functional assay
# [23] = target: T4, hCMV gH + gL + UL128 + UL130 (HEK293T …); experiment: cell-based or functional assay; remark: listed apart in the source
# T2 sequence (P06473 32-906 limits assumed): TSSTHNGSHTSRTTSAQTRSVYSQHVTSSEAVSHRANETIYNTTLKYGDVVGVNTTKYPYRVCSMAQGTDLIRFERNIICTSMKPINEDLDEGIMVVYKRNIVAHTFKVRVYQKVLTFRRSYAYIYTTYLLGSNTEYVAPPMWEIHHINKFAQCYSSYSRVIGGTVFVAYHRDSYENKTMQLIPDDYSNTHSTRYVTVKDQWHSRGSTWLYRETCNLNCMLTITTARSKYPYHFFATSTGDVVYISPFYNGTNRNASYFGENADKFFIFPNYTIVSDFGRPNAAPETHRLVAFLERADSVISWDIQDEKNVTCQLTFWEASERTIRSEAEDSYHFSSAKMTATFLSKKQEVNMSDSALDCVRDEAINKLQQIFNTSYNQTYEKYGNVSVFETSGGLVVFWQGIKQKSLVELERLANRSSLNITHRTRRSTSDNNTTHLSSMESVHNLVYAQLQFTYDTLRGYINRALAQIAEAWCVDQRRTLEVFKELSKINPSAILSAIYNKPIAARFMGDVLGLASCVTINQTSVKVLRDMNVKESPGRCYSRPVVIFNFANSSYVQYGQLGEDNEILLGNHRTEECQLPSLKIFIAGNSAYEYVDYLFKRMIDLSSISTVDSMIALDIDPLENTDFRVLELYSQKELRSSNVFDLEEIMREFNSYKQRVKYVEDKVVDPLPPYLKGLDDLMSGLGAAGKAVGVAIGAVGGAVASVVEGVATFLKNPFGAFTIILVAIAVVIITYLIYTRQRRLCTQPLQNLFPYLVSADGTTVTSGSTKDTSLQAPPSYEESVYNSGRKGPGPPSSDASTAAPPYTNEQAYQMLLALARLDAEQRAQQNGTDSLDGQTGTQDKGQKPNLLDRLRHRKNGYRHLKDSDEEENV
Binder,"50% neutralization VR1814, BM-MSC [1] [µg/mL]","50% neutralization VR1814, Mo-DC [1] [µg/mL]","90% neutralization VR1814, ARPE [2] [µg/mL]","90% neutralization VR1814, MRC-9 [2] [µg/mL]",Inhibition of binding (%) [3] [%],Inhibition of binding (%) [4] [%],Inhibition of binding (%) [5] [%],Inhibition of binding (%) [6] [%],Inhibition of binding (%) [7] [%],"50% neutralization VR1814, ARPE [8] [µg/mL]","50% neutralization VR1814, MRC-9 [8] [µg/mL]",Inhibition of binding (%) [9] [%],Inhibition of binding (%) [10] [%],Inhibition of binding (%) [11] [%],Inhibition of binding (%) [12] [%],Inhibition of binding (%) [13] [%],Inhibition of binding (%) [14] [%],Inhibition of binding (%) [17] [%],Inhibition of binding (%) [18] [%],Inhibition of binding (%) [19] [%],also measured
"5F1 (antibody, V domains shown, human IgG; also called 5F1-biotin) VH: AVQLVESGGGLAQPGRSLRLSCKVSGFTFSSYEMNWVRQAPGKGLEWIAYIDFTGSTIYYADSVKGRFTISRDTARNSLYLQMNKLRVEDTAVYYCVRDAGRWGTSWYYFDYWGQGTLVTVSS VL: QSVLTQPPSVSGAPGQRVTISCTGLSSNIGAGYDIHWYQQIPGKAPKLLIYGNNNRPSGVPDRFSGSKSGTSVSLAITGLQAEDEADYYCQSYDSSLNGWVFGGGTRLTVL",0.3,0.05,0.1,0.5,100,100,0,0,100,≤ 2,≤ 2,100,,,,,,,,,
"10C6 (antibody, V domains shown, human IgG; also called 10C6-biotin; 1006) VH: AVQLVESGGGLAQPGRSLRLSCKVSGFSFSNFEMNWVRQAPGKGLEWIAYIDFTGSTIYYSDSVKGRFTISRDTARNSLYLQMNKLRVEDTAVYYCVRDAGRWGTSWYYFDYWGQGTLVTVSS VL: QSVLTQPPSVSGAPGQRVTISCTGLSSNIGAGYDIHWYQQIPGKAPKLLIYGNNNRPSGVPDRFSGSKSGTSVSLAITGLQAEDEADYYCQSYDSSLNGWVFGGGTRLTVL",0.3,0.02,0.2,0.75,100,100,0,0,100,≤ 2,≤ 2,100,,,,,,,,,
"4H9 (antibody, V domains shown, human IgG; also called 4H9-biotin; 4H9.6) VH: AVQLVESGGGLVRPGGSLRLSCAASGFTFSSHEMHWVRQAPGKGLEWLSYIDFTGSIIYYADSVRGRFTISRDNTKKSLFLQMNSLRDEDTALYYCARDGGRWGTSWYYFDYWGQGVLVTVSS VL: QSVLTQPPSVSGAPGQRVTITCTGSSSNFGAGYDGHWYQQLPGTAPKLLIYGSNRPSGVPDRFSGSKSGTSVSLAITGLQADDEADYYCQSYDSSLSAWVFGGGTKLTVL",,,0.4,10,100,100,0,0,100,≤ 2,≤ 2,100,,,,,,,,,
"15D8 (antibody, V domains shown, human IgG; also called 15D8-biotin) VH: EVQLVQSGAEVKKPGESLKISCQASGYSFTNYWIAWVRQMPGKGLEWMGIIYPGDSDIKYSPSFRGQVTISADKSISNAFLQWRSLRASDTAMYYCARHAIRGDGFDYWGQGTLVTVSS VL: SYELTQPPSVSVSPGQTATITCSGDKLGEKYACWYQQKPGQSPVLVMYQDTKRPSGIPERFSGSNSGNTATLTISGTRAMDEADYYCQAWDTNTVIFGGGTKLTVL",,,,,,,,,,,,,0,0,0,0,0,0,100,0,"Inhibition of binding (%) [15]: 0%; 90% neutralization VR1814, ARPE [16]: 0.008 µg/mL; 90% neutralization VR1814, MRC-9 [16]: > 10 µg/mL; 50% neutralization VR1814, ARPE [20]: < 0.001 µg/mL; 50% neutralization VR1814, MRC-9 [20]: > 2 µg/mL; Inhibition of binding (%) [21]: 0%"
"8I21 (antibody, V domains shown, human IgG; also called 8I21-biotin) VH: LVELVESGGGVVQPGRSLRLSCAASGFTFSSDGMHWVRQSPGRGLEWVAFISSDGSTPYYADSVKGRFTISRDNSKNTLYLQMNSLRAEDTAMYFCAKDWALFRWLRTFDHWGQGTLVTVSS VL: not shown",,,,,,,,,,,,,0,0,0,90,0,95,0,100,"90% neutralization VR1814, ARPE [22]: 0.03 µg/mL; 90% neutralization VR1814, MRC-9 [22]: > 10 µg/mL; 50% neutralization VR1814, ARPE [23]: < 0.01 µg/mL; 50% neutralization VR1814, MRC-9 [23]: > 2 µg/mL; Inhibition of binding (%) [21]: 0%"
"6B4 (antibody, V domains shown, human IgG; also called 6B4-biotin) VH: QVQLVESGGGVVQPGRSLRLSCAASGFRFNEFNMHWVRQAPGKGLEWVAVISIDGRHKYNADSVEGRFTISRDNSRNTLYLQMNSLRVEDTALYYCVTDGKAVDGFSGILEFWGQGTPVTVST VL: EIVLTQSPATLSLSPGERATLSCWASQSVGGYLAWYQQKPGQAPRLLIYDASIRATGIPARFSGSGSGTHFTLTINSLEPEDFAVYYCQQRNNWPPLTFGGGTKVEIK",2,0.11,0.15,1,0,0,100,0,0,≤ 2,≤ 2,0,,,,,,,,,
